Two molecules from PMC9949273 (The Journal of Cell Biology, 2023) can be followed below.

B1: His6-tagged N-terminal cytoplasmic domain of ATL2 (1–480) (domain or fragment, human, UniProt Q8NHH9 1-480, looked up)
chain: MAEGDEAARGQQPHQGLWRRRRTSDPSAAVNHVSSTTSLGENYEDDDLVNSDEVMKKPCPVQIVLAHEDDHNFELDEEALEQILLQEHIRDLNIVVVSVAGAFRKGKSFLLDFMLRYMYNKDSQSWIGGNNEPLTGFTWRGGCERETTGIQVWNEVFVIDRPNGTKVAVLLMDTQGAFDSQSTIKDCATVFALSTMTSSVQVYNLSQNIQEDDLQHLQLFTEYGRLAMEEIYQKPFQTLMFLIRDWSYPYEHSYGLEGGKQFLEKRLQVKQNQHEELQNVRKHIHNCFSNLGCFLLPHPGLKVATNPSFDGRLKDIDEDFKRELRNLVPLLLAPENLVEKEISGSKVTCRDLVEYFKAYIKIYQGEELPHPKSMLQATAEANNLAAVAGARDTYCKSMEQVCGGDKPYIAPSDLERKHLDLKEVAIKQFRSVKKMGGDEFCRRYQDQLEAEIEETYANFIKHNDGKNIFYAARTPATLFA
B2: GST-tagged ATL3 (natural protein, human, UniProt Q6DD88 1-541, looked up)
chain: MLSPQRVAAAASRGADDAMESSKPGPVQVVLVQKDQHSFELDEKALASILLQDHIRDLDVVVVSVAGAFRKGKSFILDFMLRYLYSQKESGHSNWLGDPEEPLTGFSWRGGSDPETTGIQIWSEVFTVEKPGGKKVAVVLMDTQGAFDSQSTVKDCATIFALSTMTSSVQIYNLSQNIQEDDLQQLQLFTEYGRLAMDEIFQKPFQTLMFLVRDWSFPYEYSYGLQGGMAFLDKRLQVKEHQHEEIQNVRNHIHSCFSDVTCFLLPHPGLQVATSPDFDGKLKDIAGEFKEQLQALIPYVLNPSKLMEKEINGSKVTCRGLLEYFKAYIKIYQGEDLPHPKSMLQATAEANNLAAAASAKDIYYNNMEEVCGGEKPYLSPDILEEKHCEFKQLALDHFKKTKKMGGKDFSFRYQQELEEEIKELYENFCKHNGSKNVFSTFRTPAVLFTGIVALYIASGLTGFIGLEVVAQLFNCMVGLLLIALLTWGYIRYSGQYRELGGAIDFGAAYVLEQASSHIGNSTQATVRDAVVGRPSMDKKAQ

The assay “GST-tagged ATL3” concerns the target B2. The experiment in a line: pull-down.
Assay [1] deals with ATL2-1 (major splice isoform of ATL2) (human, UniProt Q8NHH9 1-583). The assay can be described thus: cross-linking.

Regarding B1, the binding result in the assay with GST-tagged ATL3 is “binds”.
Regarding B2, the binding result in assay [1] is reported as “binds”.
